Experimental data: the supplement of paper PMC10724198
± gives the standard deviation of the averaged measurements.

Legend:
Assay in all cases: protein stability index of tFT-peptide fusion (C-terminal peptide) (PSI (0-1 scale)); higher = more stable (slower turnover)
Saccharomyces cerevisiae [1] = conditions: temperature: 30 C
Description: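 MPS profiling in S. cerevisiae of the yeast C-terminome library: the last 12 aa of each annotated ORF are fused to the C-terminus of a sfGFP-mCherry timer, after a GGGS linker. Cells are FACS-sorted into 8 mCherry/sfGFP bins and deep-sequenced. PSI runs from 0 (unstable) to 1 (stable); wild type and das1Δ backgrounds, two technical replicates each.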

Saccharomyces cerevisiae [2] = test system: Saccharomyces cerevisiae
Description: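 MPS profiling in S. cerevisiae of the tFT-X12 degron library: putative degron peptides plus stable controls, 12 aa, fused to the C-terminus of a sfGFP-mCherry timer. Cells are FACS-sorted into 8 mCherry/sfGFP bins and deep-sequenced. PSI runs from 0 (unstable) to 1 (stable). Backgrounds are wild type, das1Δ and doa10Δ at 30 °C, and wild type, das1Δ, cdc34-1 and cdc53-1 at 37 °C; 2-3 technical replicates each.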

Saccharomyces cerevisiae [3] = conditions: genetic background: wild type; temperature: 30 C
[4] = genetic background: das1 deletion
[5] = genetic background: cdc34-1, temperature: 37 C
[6] = genetic background: cdc53-1, temperature: 37 C
[7] = genetic background: das1 deletion, temperature: 30 C
[8] = genetic background: das1 deletion, temperature: 37 C
[9] = genetic background: doa10 deletion, temperature: 30 C
[10] = genetic background: wild type, temperature: 30 C
[11] = genetic background: wild type, temperature: 37 C

Question: Which results are given for “CVWESMSNWLQK [YEL034C-A C-terminal 12 aa]”?
Answer: protein stability index (Saccharomyces cerevisiae [1]; [4]): 0.7238 ± 0.00042; protein stability index (Saccharomyces cerevisiae [1]; genetic background: wild type): 0.724 ± 0.015

Question: For DAAIVKKYKNKT [NUP57 C-terminal 12 aa], which protein stability index (Saccharomyces cerevisiae [1]; [4]) is on record?
Answer: Its protein stability index is 0.687 ± 0.025.

Question: And the protein stability index (Saccharomyces cerevisiae [1]; genetic background: wild type)?
Answer: Its protein stability index is 0.692 ± 0.033.

Question: Which results are given for DDDEDGYNPYTL [PAP2 C-terminal 12 aa]?
Answer: protein stability index (Saccharomyces cerevisiae [1]; [4]): 0.7215 ± 0.0049; protein stability index (Saccharomyces cerevisiae [1]; genetic background: wild type): 0.697 ± 0.0073

Question: For WFLLILFSAFAV, which protein stability index (Saccharomyces cerevisiae [2]; [5]) is on record?
Answer: The protein stability index was 0.433 ± 0.021.

Question: And the protein stability index (Saccharomyces cerevisiae [2]; [6])?
Answer: The protein stability index was 0.463 ± 0.036.

Question: And the protein stability index (Saccharomyces cerevisiae [2]; [7])?
Answer: The protein stability index was 0.352 ± 0.022.

Question: What about the protein stability index (Saccharomyces cerevisiae [2]; [8]) of the same sequence?
Answer: Its protein stability index is 0.501 ± 0.0097.

Question: What about the protein stability index (Saccharomyces cerevisiae [2]; [9]) of the same sequence?
Answer: Its protein stability index is 0.314 ± 0.0041.

Question: And the protein stability index (Saccharomyces cerevisiae [2]; [10])?
Answer: The protein stability index was 0.3465 ± 0.003.

Question: What about the protein stability index (Saccharomyces cerevisiae [2]; [11]) of the same sequence?
Answer: Its protein stability index is 0.471 ± 0.0049.

Question: And the protein stability index (Saccharomyces cerevisiae [3])?
Answer: The protein stability index was 0.436 ± 0.0045.

Question: WFSVIMLCYILP was tested. Which protein stability index (Saccharomyces cerevisiae [2]; [5]) did it give?
Answer: The protein stability index was 0.204 ± 0.023.

Question: What about the protein stability index (Saccharomyces cerevisiae [2]; [6]) of the same sequence?
Answer: Its protein stability index is 0.22 ± 0.028.

Question: What about the protein stability index (Saccharomyces cerevisiae [2]; [7]) of the same sequence?
Answer: The protein stability index was 0.23 ± 0.042.

Question: What about the protein stability index (Saccharomyces cerevisiae [2]; [8]) of the same sequence?
Answer: The protein stability index was 0.3397 ± 0.0018.

Question: And the protein stability index (Saccharomyces cerevisiae [2]; [9])?
Answer: Its protein stability index is 0.233 ± 0.027.

Question: What about the protein stability index (Saccharomyces cerevisiae [2]; [10]) of the same sequence?
Answer: The protein stability index was 0.198 ± 0.014.

Question: What about the protein stability index (Saccharomyces cerevisiae [2]; [11]) of the same sequence?
Answer: The protein stability index was 0.248 ± 0.036.

Question: What about the protein stability index (Saccharomyces cerevisiae [3]) of the same sequence?
Answer: The protein stability index was 0.253 ± 0.004.

Question: What does the source list for WFVCSGVYGSVM?
Answer: protein stability index (Saccharomyces cerevisiae [2]; [5]): 0.676 ± 0.0086; protein stability index (Saccharomyces cerevisiae [2]; [6]): 0.749 ± 0.02; protein stability index (Saccharomyces cerevisiae [2]; [7]): 0.682 ± 0.094; protein stability index (Saccharomyces cerevisiae [2]; [8]): 0.758 ± 0.035; protein stability index (Saccharomyces cerevisiae [2]; [9]): 0.6528 ± 0.0019; protein stability index (Saccharomyces cerevisiae [2]; [10]): 0.638 ± 0.026; protein stability index (Saccharomyces cerevisiae [2]; [11]): 0.721 ± 0.0092; protein stability index (Saccharomyces cerevisiae [3]): 0.692 ± 0.013

Question: How did the protein stability index (Saccharomyces cerevisiae [2]; [5]) turn out when WFVFVFCSPRSS was run?
Answer: Its protein stability index is 0.547 ± 0.048.

Question: And the protein stability index (Saccharomyces cerevisiae [2]; [6])?
Answer: The protein stability index was 0.618 ± 0.0098.

Question: And the protein stability index (Saccharomyces cerevisiae [2]; [7])?
Answer: The protein stability index was 0.4 ± 0.03.

Question: And the protein stability index (Saccharomyces cerevisiae [2]; [8])?
Answer: Its protein stability index is 0.65 ± 0.027.

Question: And the protein stability index (Saccharomyces cerevisiae [2]; [9])?
Answer: Its protein stability index is 0.394 ± 0.012.

Question: And the protein stability index (Saccharomyces cerevisiae [2]; [10])?
Answer: Its protein stability index is 0.406 ± 0.017.

Question: And the protein stability index (Saccharomyces cerevisiae [2]; [11])?
Answer: The protein stability index was 0.568 ± 0.0097.

Question: And the protein stability index (Saccharomyces cerevisiae [3])?
Answer: The protein stability index was 0.5 ± 0.029.

Question: For WGFSVRFVLSVF, which protein stability index (Saccharomyces cerevisiae [2]; [5]) is on record?
Answer: The protein stability index was 0.0576 ± 0.004.

Question: And the protein stability index (Saccharomyces cerevisiae [2]; [6])?
Answer: Its protein stability index is 0.145 ± 0.03.

Question: What about the protein stability index (Saccharomyces cerevisiae [2]; [7]) of the same sequence?
Answer: The protein stability index was 0.124 ± 0.029.

Question: What about the protein stability index (Saccharomyces cerevisiae [2]; [8]) of the same sequence?
Answer: The protein stability index was 0.2407 ± 0.0016.

Question: What about the protein stability index (Saccharomyces cerevisiae [2]; [9]) of the same sequence?
Answer: Its protein stability index is 0.05 ± 0.014.

Question: What about the protein stability index (Saccharomyces cerevisiae [2]; [10]) of the same sequence?
Answer: The protein stability index was 0.0463 ± 0.02.

Question: And the protein stability index (Saccharomyces cerevisiae [2]; [11])?
Answer: Its protein stability index is 0.115 ± 0.024.

Question: And the protein stability index (Saccharomyces cerevisiae [3])?
Answer: Its protein stability index is 0.12 ± 0.017.

Question: How did the protein stability index (Saccharomyces cerevisiae [2]; [5]) turn out when WGVVMVCVVFGL was run?
Answer: The protein stability index was 0.116 ± 0.019.

Question: And the protein stability index (Saccharomyces cerevisiae [2]; [6])?
Answer: The protein stability index was 0.247 ± 0.016.

Question: And the protein stability index (Saccharomyces cerevisiae [2]; [7])?
Answer: The protein stability index was 0.186 ± 0.028.

Question: What about the protein stability index (Saccharomyces cerevisiae [2]; [8]) of the same sequence?
Answer: The protein stability index was 0.312 ± 0.0044.

Question: And the protein stability index (Saccharomyces cerevisiae [2]; [9])?
Answer: The protein stability index was 0.159 ± 0.011.

Question: What about the protein stability index (Saccharomyces cerevisiae [2]; [10]) of the same sequence?
Answer: The protein stability index was 0.183 ± 0.019.

Question: What about the protein stability index (Saccharomyces cerevisiae [2]; [11]) of the same sequence?
Answer: The protein stability index was 0.252 ± 0.027.

Question: What about the protein stability index (Saccharomyces cerevisiae [3]) of the same sequence?
Answer: Its protein stability index is 0.3249 ± 0.0027.

Question: With WHFMVFFCFCVD as the sequence, how does the protein stability index (Saccharomyces cerevisiae [2]; [5]) read?
Answer: The protein stability index was 0.295 ± 0.04.

Question: What about the protein stability index (Saccharomyces cerevisiae [2]; [6]) of the same sequence?
Answer: The protein stability index was 0.399 ± 0.061.

Question: What about the protein stability index (Saccharomyces cerevisiae [2]; [7]) of the same sequence?
Answer: Its protein stability index is 0.317 ± 0.036.

Question: What about the protein stability index (Saccharomyces cerevisiae [2]; [8]) of the same sequence?
Answer: The protein stability index was 0.406 ± 0.0098.

Question: And the protein stability index (Saccharomyces cerevisiae [2]; [9])?
Answer: Its protein stability index is 0.28 ± 0.0047.

Question: What about the protein stability index (Saccharomyces cerevisiae [2]; [10]) of the same sequence?
Answer: The protein stability index was 0.277 ± 0.023.

Question: What about the protein stability index (Saccharomyces cerevisiae [2]; [11]) of the same sequence?
Answer: The protein stability index was 0.355 ± 0.028.

Question: And the protein stability index (Saccharomyces cerevisiae [3])?
Answer: The protein stability index was 0.381 ± 0.024.

Question: What does the source list for WILPASFCVVFL?
Answer: protein stability index (Saccharomyces cerevisiae [2]; [5]): 0.502 ± 0.012; protein stability index (Saccharomyces cerevisiae [2]; [6]): 0.5334 ± 0.0024; protein stability index (Saccharomyces cerevisiae [2]; [7]): 0.385 ± 0.021; protein stability index (Saccharomyces cerevisiae [2]; [8]): 0.5556 ± 0.005; protein stability index (Saccharomyces cerevisiae [2]; [9]): 0.425 ± 0.019; protein stability index (Saccharomyces cerevisiae [2]; [10]): 0.397 ± 0.016; protein stability index (Saccharomyces cerevisiae [2]; [11]): 0.528 ± 0.032; protein stability index (Saccharomyces cerevisiae [3]): 0.427 ± 0.027

Question: Which protein stability index (Saccharomyces cerevisiae [2]; [5]) does the source give for WLALSFFSFFFC here?
Answer: Its protein stability index is 0.654 ± 0.014.

Question: And the protein stability index (Saccharomyces cerevisiae [2]; [6])?
Answer: Its protein stability index is 0.7221 ± 0.00075.

Question: What about the protein stability index (Saccharomyces cerevisiae [2]; [7]) of the same sequence?
Answer: The protein stability index was 0.588 ± 0.025.

Question: And the protein stability index (Saccharomyces cerevisiae [2]; [8])?
Answer: Its protein stability index is 0.6825 ± 0.0042.

Question: And the protein stability index (Saccharomyces cerevisiae [2]; [9])?
Answer: Its protein stability index is 0.577 ± 0.047.

Question: And the protein stability index (Saccharomyces cerevisiae [2]; [10])?
Answer: Its protein stability index is 0.57 ± 0.026.

Question: And the protein stability index (Saccharomyces cerevisiae [2]; [11])?
Answer: The protein stability index was 0.66 ± 0.02.

Question: And the protein stability index (Saccharomyces cerevisiae [3])?
Answer: Its protein stability index is 0.588 ± 0.19.

Question: Which protein stability index (Saccharomyces cerevisiae [2]; [5]) does the source give for WLFRASSFNWVI here?
Answer: The protein stability index was 0.537 ± 0.017.

Question: What about the protein stability index (Saccharomyces cerevisiae [2]; [6]) of the same sequence?
Answer: The protein stability index was 0.7359 ± 0.0063.

Question: And the protein stability index (Saccharomyces cerevisiae [2]; [7])?
Answer: Its protein stability index is 0.689 ± 0.04.

Question: And the protein stability index (Saccharomyces cerevisiae [2]; [8])?
Answer: Its protein stability index is 0.802 ± 0.025.

Question: And the protein stability index (Saccharomyces cerevisiae [2]; [9])?
Answer: Its protein stability index is 0.0843 ± 0.016.

Question: What about the protein stability index (Saccharomyces cerevisiae [2]; [10]) of the same sequence?
Answer: The protein stability index was 0.105 ± 0.026.

Question: And the protein stability index (Saccharomyces cerevisiae [2]; [11])?
Answer: Its protein stability index is 0.188 ± 0.019.

Question: What about the protein stability index (Saccharomyces cerevisiae [3]) of the same sequence?
Answer: The protein stability index was 0.105 ± 0.036.
